“And” between values parts separate entries of the source, which are not always exact repeats. Equal entries are not always repeated.
How the values were obtained:
Conditions in all cases: both partners purified
[1] = biological target: T1, CUL3NTD (CUL3 N-terminal domain, residues 1–388, I342R L346D) (human, UniProt Q13618 1-388, I342R | L346D); assay: crystal structure; KEAP1_(BTB-3-box) and CUL3NTD mixed 1:1, purified by SEC; sitting drop at 20 °C, 20% PEG 3350, 10% ethylene glycol, 0.2 M potassium citrate tribasic; 3.45 Å, space group C2 2 2_(1)
T1 construct: human CUL3, Uniprot Q13618, residues 1–388, vector pNIC-CTHF, with stabilising mutations I342R and L346D (split-n-express); source: E. coli BL21(DE3)-pRARE2, purified (nickel sepharose, TEV cleavage, SEC); not shown: His6, C-terminal, cleaved; FLAG, C-terminal, cleaved

AF488-labeled CUL3NTD [2] = biological target: T2, AF488-labeled CUL3NTD (human, UniProt Q13618 1-388, I342R | L346D, AF488 by direct acylation with AF488-Tfp (sites not given)); assay: FRET or BRET; TR-FRET protein displacement assay: CoraFluor-1-labeled KLHL11_(BTB-BACK) + AF488-labeled CUL3NTD, unlabeled protein titrated (cmax 25 μM); assay buffer pH 7.5, 2 h, room temperature; KD from IC50 by Cheng-Prusoff
T2 construct: human CUL3, Uniprot Q13618, residues 1–388, vector pNIC-CTHF, with stabilising mutations I342R and L346D; also called AF488-CUL3NTD; source: E. coli BL21(DE3)-pRARE2, purified (nickel sepharose, TEV cleavage, SEC), labeled with AF488-Tfp; not shown: His6, C-terminal, cleaved; FLAG, C-terminal, cleaved

AF488-labeled CUL3NTD [3] = biological target: T2, AF488-labeled CUL3NTD; assay: FRET or BRET; TR-FRET protein displacement assay: CoraFluor-1-labeled KEAP1FL + AF488-labeled CUL3NTD, unlabeled protein titrated (cmax 25 μM); assay buffer pH 7.5, 2 h, room temperature; KD from IC50 by Cheng-Prusoff
[4] = biological target: biotinylated CUL3NTD (residues 1–389) (human, UniProt Q13618 1-389, I342R | L346D, biotin (on the avi tag)); assay: BLI; biotinylated CUL3NTD immobilised on streptavidin tips, KEAP1_(BTB-3-box) in serial dilution; 50 mM HEPES, 300 mM NaCl, 0.5 mM TCEP, 10 mM DTT, 0.01% TWEEN-20; steady-state and kinetic fits, 1:1 model; apparent
biotinylated CUL3NTD (residues 1–389), sequence (Q13618 1-389 I342R/L346D): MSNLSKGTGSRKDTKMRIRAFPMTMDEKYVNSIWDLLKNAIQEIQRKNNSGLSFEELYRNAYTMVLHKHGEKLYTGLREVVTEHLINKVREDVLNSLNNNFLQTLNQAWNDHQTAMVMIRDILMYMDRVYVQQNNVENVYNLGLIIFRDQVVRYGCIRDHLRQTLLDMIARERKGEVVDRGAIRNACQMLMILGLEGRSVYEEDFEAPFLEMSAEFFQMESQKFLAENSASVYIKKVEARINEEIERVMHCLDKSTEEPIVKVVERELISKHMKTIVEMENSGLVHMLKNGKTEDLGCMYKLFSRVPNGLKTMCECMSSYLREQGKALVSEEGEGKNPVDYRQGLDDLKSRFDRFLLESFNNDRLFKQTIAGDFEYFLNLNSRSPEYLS

T2 sequence (Q13618 1-388 I342R/L346D): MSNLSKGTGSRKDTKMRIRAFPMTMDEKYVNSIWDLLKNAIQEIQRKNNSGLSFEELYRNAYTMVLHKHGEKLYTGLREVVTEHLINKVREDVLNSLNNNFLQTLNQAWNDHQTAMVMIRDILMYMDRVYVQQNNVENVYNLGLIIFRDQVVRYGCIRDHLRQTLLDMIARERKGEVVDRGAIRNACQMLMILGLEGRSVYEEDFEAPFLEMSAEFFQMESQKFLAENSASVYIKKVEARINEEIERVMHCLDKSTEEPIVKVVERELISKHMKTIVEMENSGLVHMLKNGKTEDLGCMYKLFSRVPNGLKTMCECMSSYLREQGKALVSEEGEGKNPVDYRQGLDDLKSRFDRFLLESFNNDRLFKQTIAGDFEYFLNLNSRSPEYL
T1 sequence (Q13618 1-388 I342R/L346D): as above

B1: KEAP1_(BTB-3-box) (human KEAP1 residues 48–213) (domain or fragment, UniProt Q14145 48-213, looked up)
chain: GNRTFSYTLEDHTKQAFGIMNELRLSQQLCDVTLQVKYQDAPAAQFMAHKVVLASSSPVFKAMFTNGLREQGMEVVSIEGIHPKVMERLIEFAYTASISMGEKCVLHVMNGAVMYQIDSVVRACSDFLVQQLDPSNAIGIANFAEQIGCVELHQRAREYIYMHFGE
notes: human KEAP1 (KLHL19), Uniprot Q14145, residues 48–213 (BTB and 3-box), vector pNIC28-Bsa4; Homodimer through the BTB domain by crystallographic symmetry; Residues 51–204 modelled in the structure; also called BTB and 3-box domains of human KEAP1; source: E. coli BL21(DE3)-pRARE2, purified (nickel sepharose, TEV cleavage, SEC); not shown: His6, N-terminal, cleaved
Question: With B1 as the binder, how does the “stoichiometry N” value [1] read?
Answer: Its value is 1 KEAP1 per CUL3 (printed as 2:2).

Question: And the Kd (AF488-labeled CUL3NTD [2])?
Answer: The Kd was 720 nM.

Question: And the Kd (AF488-labeled CUL3NTD [3])?
Answer: The Kd was 1040 nM.

Question: And the Kd [4]?
Answer: The Kd was 1700 nM and 1400 nM.

Source: PMC10564622 (Free Radical Biology & Medicine, 2023)
